Data taken from article PMC3938669, “Inhibition of Hepatitis C Virus Infection by DNA Aptamer against NS2 Protein”.

Molecular target: NS2 (recombinant) (Hepatitis C virus JFH1 (genotype 2a), UniProt Q99IB8 814-1030)
Assay: ELONA; binding retained with excess yeast tRNA; ELONA: biotin-aptamer on streptavidin plates, protein 30 min at 37 C; washes PBS, 1 mM MgCl2, 0.1% BSA, 0.05% Tween-20; pH not stated
Settings: tags: N-terminal His (pET-28b), label: biotin

NS2 (recombinant), sequence (Q99IB8 814-1030): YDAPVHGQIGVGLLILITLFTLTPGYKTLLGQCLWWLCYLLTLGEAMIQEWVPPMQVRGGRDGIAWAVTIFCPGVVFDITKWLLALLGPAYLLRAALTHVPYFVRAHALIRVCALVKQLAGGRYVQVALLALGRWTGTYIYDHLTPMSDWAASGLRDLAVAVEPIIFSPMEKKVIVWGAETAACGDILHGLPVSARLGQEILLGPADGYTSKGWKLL

Binding result, binds:
CAGGTACCACCTTCATGGGCGCGGAAGACGATGGTGTACTA (ssDNA) [aptamer NS2-2], CTGGATCGAAAAGTATCCACGTTTGTCTGAAAATAGTGGCC (ssDNA) [aptamer NS2-1], ACGGGGCAGGATTGTCCCCGCGCCTGGTTGAAGGTAGTCGC (ssDNA) [aptamer NS2-3]
